Laboratory results published in patent US12384811B2, “Sialidase-resistant saccharide and method of making and using the same” (Academia Sinica, priority 2019, dated 2025).

What was measured:
[1] = target: T1, sialidase from Vibrio cholerae (Vibrio cholerae serotype O1, UniProt P0C6E9); type: biochemical
T1 construct: purchased Sigma Aldrich 11080725001

[2] = tested on: sialidase from Clostridium perfringens; type: biochemical; details: C. perfringens sialidase, substrate Neu5Ac-α2,6-GalβpNP 0.6 mM, inhibitor 0-20 mM (FIG. 1B)
FcγRIIIa = target: T2, FcγRIIIa (Homo sapiens, UniProt P08637); experiment: Surface plasmon resonance (SPR) analysis of binding avidity of glycoengineered Rituximab IgG1; details: for improvement in binding avidity to FcγRIIIa compared to the commercial sample of rituximab / Rmax / Kd / ka / kd: SPR; for Rmax / Kd / ka / kd: BIACORE T200, 25° C.; for Kd / ka / kd: single cycle kinetic, 1:1 Langmuir model; for Fold: binding avidity relative to commercial Rituximab
T2 construct: made in house; host or cells: HEK-293
Experimental: All the SPR experiments were performed with the single cycle kinetic method by BIACORE T200 at 25° C. using HBS-EP (10 mM HEPES pH7.4, 0.15M NaCl, 3mMEDTA, 0.005% surfactant P20) as running buffer. FcγRIIIa was transfected into HEK-293 cells to express the complex-type glycosylated recombinant protein as analyte. For the analysis of Rituximabs binding to FcγRIIIa receptor, antihuman Fab antibodies in human Fab capture kit (GE Healthcare) were immobilized onto both the reference and active channels of CM5 sensor chip, and then Rituximabs were captured on the active channel for interacting with the serial dilutions of FcγRIIIa analyte (2.5, 5, 10, 20, 40 nM for 2,6-FluoSCT and 2,6-SCT; 8, 24, 72, 216, 648 nM for the commercial Rituximabs) at 30 μl/min for association of 240 seconds followed by dissociation time of 420 seconds. Rituximab data were processed with double referencing for background subtraction. Data of Rituximabs was fitted to 1:1 Langmuir binding model in BiaEvaluation software (GE Healthcare) to obtain the kinetic/affinity constants (Table 4). Analyzed antibodies were captured by the Human Fab capture kit and detected with the single cycle kinetic method.

[3] = target: T1, sialidase from Vibrio cholerae; type: biochemical; details: pH 5.5
[4] = tested on: sialidase from Clostridium perfringens; type: biochemical; details: C. perfringens sialidase, 37° C., pH 5.0, substrate 0-20 mM, β-galactosidase, A405 nm (FIG. 1A)

T2 sequence (P08637 17-254): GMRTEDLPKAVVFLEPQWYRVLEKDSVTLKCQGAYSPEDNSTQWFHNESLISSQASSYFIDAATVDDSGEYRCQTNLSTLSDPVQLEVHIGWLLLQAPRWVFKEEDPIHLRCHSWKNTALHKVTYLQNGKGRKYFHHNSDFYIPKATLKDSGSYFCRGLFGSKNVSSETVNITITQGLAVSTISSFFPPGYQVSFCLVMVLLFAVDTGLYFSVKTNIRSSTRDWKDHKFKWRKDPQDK
T1 sequence (P0C6E9 25-781): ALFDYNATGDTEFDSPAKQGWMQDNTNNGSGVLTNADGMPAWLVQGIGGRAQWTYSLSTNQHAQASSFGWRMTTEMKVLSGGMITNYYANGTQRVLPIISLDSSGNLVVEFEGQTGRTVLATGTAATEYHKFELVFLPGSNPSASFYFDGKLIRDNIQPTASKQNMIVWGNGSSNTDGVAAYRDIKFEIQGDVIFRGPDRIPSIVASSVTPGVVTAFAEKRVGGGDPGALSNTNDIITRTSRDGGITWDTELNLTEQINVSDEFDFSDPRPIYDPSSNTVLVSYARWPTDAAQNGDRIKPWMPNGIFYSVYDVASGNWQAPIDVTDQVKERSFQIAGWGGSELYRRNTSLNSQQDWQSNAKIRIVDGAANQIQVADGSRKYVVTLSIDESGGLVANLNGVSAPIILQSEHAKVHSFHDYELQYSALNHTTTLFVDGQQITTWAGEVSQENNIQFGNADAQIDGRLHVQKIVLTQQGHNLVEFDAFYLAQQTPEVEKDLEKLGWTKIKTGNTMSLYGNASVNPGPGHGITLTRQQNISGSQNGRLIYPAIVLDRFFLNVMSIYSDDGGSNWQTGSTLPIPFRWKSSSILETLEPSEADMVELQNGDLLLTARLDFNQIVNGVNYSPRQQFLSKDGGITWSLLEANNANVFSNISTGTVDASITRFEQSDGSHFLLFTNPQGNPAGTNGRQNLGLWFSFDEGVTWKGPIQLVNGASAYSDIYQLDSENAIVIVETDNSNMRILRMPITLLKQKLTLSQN

Row | Compound | inhibition of the hydrolysis of 1 [1] | inhibition of the hydrolysis of 1 [2] | improvement in binding avidity to FcγRIIIa compared to the commercial sample of rituximab (FcγRIIIa) | Rmax (FcγRIIIa) | Kd (FcγRIIIa) | ka (FcγRIIIa) | kd (FcγRIIIa) | Fold (FcγRIIIa) | hydrolytic activity of the sialidase toward the substrate [3] | hydrolytic activity of the sialidase toward the substrate [4]
1 | CC(=O)N[C@H]1[C@H]([C@H](O)[C@H](O)CO)OC(C(=O)O)=C[C@@H]1O [DANA, 2-deoxy-2,3-didehydro-N-acetylneuraminic acid] | inhibit the hydrolysis of 1 | inhibit the hydrolysis of 1 |  |  |  |  |  |  |  | 
2 | 2,6-F^axSCT: homogeneous rituximab IgG1 glycoform without core fucose bearing the 3F^ax-Neu5Ac-terminated α2,6-sialylated biantennary N-glycan |  |  | 37.4 fold | 71.28 RU | 8.18 nM | 244000 M⁻¹ s⁻¹ | 0.001996 s⁻¹ | 37.4-fold |  | 
3 | 2,6-SCT: parent nonfluorinated homogeneous rituximab glycoform (G2S2), α2,6-sialylated biantennary N-glycan without core fucose |  |  | 39.9 fold | 60.64 RU | 7.67 nM | 268000 M⁻¹ s⁻¹ | 0.002059 s⁻¹ | 39.9-fold |  | 
4 | CC(=O)N[C@H]1[C@H]([C@H](O)[C@H](O)CO)OC(OC[C@H]2O[C@@H](Oc3ccc([N+](=O)[O-])cc3)[C@H](O)[C@@H](O)[C@H]2O)(C(=O)O)C[C@@H]1O (stereo partly drawn) [Compound 1, p-Nitrophenyl [5-acetamido-5-deoxy-D-glycero-α-D-galacto-non-2-ulopyranosylonate]-(2→6)-β-D-galactopyranoside] |  |  |  |  |  |  |  |  | expected hydrolytic activity | 
5 | p-Nitrophenyl [methyl 5-acetamido-3,5-dideoxy-3-fluoro-D-erythro-α-L-manno-non-2-ulopyranosonate]-(2→6)-β-D-galactopyranoside [Compound 2] | did not significantly inhibit | did not significantly inhibit |  |  |  |  |  |  | inactive | inactive
6 | Rituximab: commercial sample of rituximab (Rituxan, Roche; major glycoforms: G1F1, G0F1, G2F1) |  |  |  | 32.33 RU | 306 nM | 231000 M⁻¹ s⁻¹ | 0.07054 s⁻¹ | 1-fold |  | 
